Test results reported in article PMC5137110, “Relocation of active site carboxylates in major facilitator superfamily multidrug transporter LmrP reveals plasticity in proton interactions” (Scientific Reports, 2016).

Tests used:
[1] = molecular target: T1, LmrP (Lactococcus lactis, UniProt Q48658); assay: fluorescence anisotropy, purified protein titrated into propidium; type: binding; details: 50 mM KPi pH 7.0, 100 mM NaCl, 0.05% DDM; 0.2 or 1 μM propidium
T1 construct: full length, 408 residues; His6-tagged (His10-tagged for T331E); plasmid pNZ8084; expressed in L. lactis NZ9000 delta-lmrA delta-lmrCD

[2] = tested on: CC[N+](C)(CC)CCC[n+]1c(-c2ccccc2)c2cc(N)ccc2c2ccc(N)cc21; assay: cells, lysate or membranes; type: cell-based, Lactococcus lactis; details: 50 mM KPi pH 7.0, 5 mM MgSO4, corrected for influx in cells without LmrP
[3] = tested on: CC[n+]1c(-c2ccccc2)c2cc(N)ccc2c2ccc(N)cc21; assay: cells, lysate or membranes; type: cell-based, Lactococcus lactis; details: 50 mM KPi pH 7.0, 5 mM MgSO4, corrected for influx in cells without LmrP

Compound: CC[N+](C)(CC)CCC[n+]1c(-c2ccccc2)c2cc(N)ccc2c2ccc(N)cc21 [propidium]
- fluorescence anisotropy, purified protein titrated into propidium [1]: propidium binding to purified T331E LmrP and WT LmrP was measured by fluorescence anisotropy

Compound: LmrP (Lactococcus lactis)
- Km [2]: 1.3 ± 0.2 µM
- Km [3]: 7.7 ± 5.1 µM
